From article PMC3870051 (Heart rhythm : the official journal of the Heart Rhythm …, 2013)

Biological target: NaV1.5 C-terminal domain (CTD), purified recombinant (UniProt Q14524 1773-1940)
Experiment: ITC

Sequence of NaV1.5 C-terminal domain (CTD), purified recombinant (Q14524 1773-1940): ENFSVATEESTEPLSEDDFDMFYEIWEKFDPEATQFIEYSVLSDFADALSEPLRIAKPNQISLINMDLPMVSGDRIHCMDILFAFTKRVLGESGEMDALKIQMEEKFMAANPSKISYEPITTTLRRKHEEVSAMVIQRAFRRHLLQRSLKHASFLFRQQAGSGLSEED

B1: Q7R-FGF12 (human FGF12-B with Q7R), purified recombinant (natural protein, UniProt P61328-2 1-181, looked up)
chain: MESKEPRLKGIVTRLFSQQGYFLQMHPDGTIDGTKDENSDYTLFNLIPVGLRVVAIQGVKASLYVAMNGEGYLYSSDVFTPECKFKESVFENYYVIYSSTLYRQQESGRAWFLGLNKEGQIMKGNRVKKTKPSSHFVPKPIEVCMYREPSLHEIGEKQGRSRKSSGTPTMNGGKVVNQDST
- fold reduction in binding affinity against WT-FGF12: 2 fold
